According to article PMC11617674, “The activity of the ribonucleotide monophosphatase UmpH is controlled by interaction with the GlnK signaling protein in Escherichia coli” (The Journal of Biological Chemistry, 2024):

Molecular target: T1, UmpH (ribonucleotide monophosphatase), untagged recombinant (E. coli, UniProt P0AF24 1-250)
T1 construct: UmpH (NagD), ribonucleotide monophosphatase of E. coli; also called NagD; untagged UmpH; source: E. coli BL21 (λDE3), pET29a, purified (ammonium sulfate, gel filtration)
T1 sequence (looked up): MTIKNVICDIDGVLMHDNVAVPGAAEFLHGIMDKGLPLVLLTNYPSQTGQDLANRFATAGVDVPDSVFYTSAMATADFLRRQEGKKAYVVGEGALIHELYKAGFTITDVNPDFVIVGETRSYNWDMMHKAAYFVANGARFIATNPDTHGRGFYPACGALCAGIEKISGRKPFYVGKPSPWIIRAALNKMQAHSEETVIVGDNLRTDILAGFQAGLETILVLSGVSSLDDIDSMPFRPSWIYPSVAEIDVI
Assay: pull-down; His-PII on Ni2+ magnetic beads, untagged UmpH; 50 mM Tris-HCl pH 8.0, 0.1 M NaCl, 5 mM MgCl2, 10% glycerol, 20 mM imidazole; room temperature; without nucleotides or with ATP or ADP (effectors as indicated); SDS-PAGE, Coomassie
Details: both partners purified

B1: His-GlnB from Azospirillum brasilense (natural protein, UniProt P21193 1-112, looked up)
chain: MKKIEAIIKPFKLDEVKEALHEVGIKGITVTEAKGFGRQKGHTELYRGAEYVVDFLPKVKIEVVMEDSLVERAIEAIQQAAHTGRIGDGKIFVTPVEEVVRIRTGEKGGDAI
notes: GlnB, PII protein of Azospirillum brasilense; also called GlnBAb; His-AbPII; not shown: His tag, N-terminal, kept
Q: Does B1 bind?
A: binds
